Reference: patent US20190153059A1 (ADEPTHERA, published 2019)
Where two headings read alike, the source gives them in different places. * marks the point of attachment. Palmitoyl = CCCCCCCCCCCCCCCC(=O)*; miniPEG = mini-PEG spacer unit

Assays:
Test in all cases: cell-based or functional assay
CLR/RAMP1 receptor [1] = target: T1, CLR/RAMP1 receptor (UniProt Q16602 23-461; O60894 27-148, limits assumed)
CLR/RAMP2 receptor [2] = target: T2, CLR/RAMP2 receptor (UniProt Q16602 23-461; O60895 43-175, limits assumed)
T2 sequence (Q16602 23-461 limits assumed, chain 1 of 2): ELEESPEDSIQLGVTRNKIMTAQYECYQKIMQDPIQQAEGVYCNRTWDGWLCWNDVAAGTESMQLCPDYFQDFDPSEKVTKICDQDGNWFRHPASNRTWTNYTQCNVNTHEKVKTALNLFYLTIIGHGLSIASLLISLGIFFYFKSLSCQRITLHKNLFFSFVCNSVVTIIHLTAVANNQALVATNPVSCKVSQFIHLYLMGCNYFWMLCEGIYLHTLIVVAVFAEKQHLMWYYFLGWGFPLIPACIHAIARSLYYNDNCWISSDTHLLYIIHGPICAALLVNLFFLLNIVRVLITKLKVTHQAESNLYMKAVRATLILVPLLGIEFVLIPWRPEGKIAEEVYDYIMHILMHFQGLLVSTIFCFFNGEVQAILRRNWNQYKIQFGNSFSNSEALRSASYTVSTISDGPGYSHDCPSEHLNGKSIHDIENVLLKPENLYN
T2 sequence (O60895 43-175 limits assumed, chain 2 of 2): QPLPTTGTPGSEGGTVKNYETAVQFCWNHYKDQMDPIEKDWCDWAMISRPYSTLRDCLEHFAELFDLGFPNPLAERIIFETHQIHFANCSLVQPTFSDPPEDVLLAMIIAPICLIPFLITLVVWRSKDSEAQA

CLR/RAMP3 receptor [3] = target: T3, CLR/RAMP3 receptor (UniProt Q16602 23-461; O60896 24-148, limits assumed)
T3 sequence (Q16602 23-461 limits assumed, chain 1 of 2): as the sequence (Q16602 23-461 limits assumed, chain 1 of 2) above
T3 sequence (O60896 24-148 limits assumed, chain 2 of 2): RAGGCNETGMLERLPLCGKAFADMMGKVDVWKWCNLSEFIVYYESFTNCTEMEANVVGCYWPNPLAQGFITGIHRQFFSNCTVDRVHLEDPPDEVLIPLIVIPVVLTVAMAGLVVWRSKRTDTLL

CLR/RAMP2 receptor [4] = target: T2, CLR/RAMP2 receptor; remark: listed apart in the source
CLR/RAMP3 receptor [5] = target: T3, CLR/RAMP3 receptor; remark: listed apart in the source
CLR/RAMP2 receptor [6] = target: T2, CLR/RAMP2 receptor; remark: listed apart in the source
CLR/RAMP1 receptor [7] = target: T1, CLR/RAMP1 receptor; remark: listed apart in the source
CLR/RAMP1 receptor [8] = target: T1, CLR/RAMP1 receptor; remark: listed apart in the source

T1 sequence (Q16602 23-461 limits assumed, chain 1 of 2): as the sequence (Q16602 23-461 limits assumed, chain 1 of 2) above
T1 sequence (O60894 27-148 limits assumed, chain 2 of 2): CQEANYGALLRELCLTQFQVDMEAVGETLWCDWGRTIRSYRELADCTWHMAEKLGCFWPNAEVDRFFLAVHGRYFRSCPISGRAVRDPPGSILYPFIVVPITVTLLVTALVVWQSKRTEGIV

Row | Binder | CLR/RAMP1 IC50 (CLR/RAMP1 receptor [1]) | CLR/RAMP2 IC50 (CLR/RAMP2 receptor [2]) | CLR/RAMP3 IC50 (CLR/RAMP3 receptor [3]) | other results
1 | Ac-TVQKLAHQIYQFTDKDKDNSAPVDPSSPHSY-NH2 [SEQ ID NO: 76] | 1120 nM | 289 nM | – | –
2 | miniPEG-K(Palmitoyl)VQKLAHQIYQFTDKDKDNSAPVDPSSPHSY-NH2 [SEQ ID NO: 78] | 4.8 nM | 34 nM | 0.8 nM | CLR/RAMP3 Max Activity (antagonist) (CLR/RAMP3 receptor [3]): 101 % of positive control; CLR/RAMP1 Max Activity (antagonist) (CLR/RAMP1 receptor [1]): 104 % of positive control; CLR/RAMP2 Max Activity (antagonist) (CLR/RAMP2 receptor [2]): 107 % of positive control
3 | KRPPGFSIKGCRFGTCTVQKLAHQIYQFTDKDVAPRSKISPQGY (Ace- at N-terminus; D/Nal in KRPPGFS-D/Nal-I; miniPEG before K(PAL); K(PAL); -NH2) [BDKRB1 antagonist and CLR/RAMP agonist MRL (SEQ ID NO: 231)] | – | – | – | CLR/RAMP2 EC50 (CLR/RAMP2 receptor [4]): 1 nM; CLR/RAMP2 Max Activity (CLR/RAMP2 receptor [4]): 46 % of positive controls
4 | Palmitoyl-KVQKLAHQISAPVDPSSPHSY-NH2 [SEQ ID NO: 123] | 4.7 nM | 50 nM | – | –
5 | Palmitoyl-KVQKLAHQIYQFTDKSAPVDPSSPHSY-NH2 [SEQ ID NO: 125] | 7 nM | 7.1 nM | – | –
6 | miniPEG-KGCRFGTCTVQKLAHQIYQFTDKDVAPRSKISPQGY-NH2 (ends and bridges not checked; also: K(PAL), position not given here) [SEQ ID NO: 101] | – | – | – | CLR/RAMP3 EC50 (CLR/RAMP3 receptor [5]): 0.5 nM; CLR/RAMP2 EC50 (CLR/RAMP2 receptor [6]): 0.3 nM
7 | Ace-TVQKLAHRLWQLMGPDKDNVAPRSKISPQGY-NH2 [SEQ ID NO: 116] | 152 nM | 7.3 nM | 53 nM | –
8 | Palmitoyl-KVQKLAHQIYQFTDKDVAPRSKISPQGY-NH2 [SEQ ID NO: 119] | 21 nM | 0.6 nM | 1.5 nM | –
9 | Pal-KVQKLAHQSAPVDPSSPHSY-NH2 [SEQ ID NO: 124] | – | – | – | CLR/RAMP3 Max Activity (antagonist) (CLR/RAMP3 receptor [3]): 102 % of positive control; CLR/RAMP1 Max Activity (antagonist) (CLR/RAMP1 receptor [1]): 95 % of positive control; CLR/RAMP2 Max Activity (antagonist) (CLR/RAMP2 receptor [2]): 103 % of positive control
10 | Palmitoyl-KVQKLAHQIYSAPVDPSSPHSY-NH2 [SEQ ID NO: 122] | 7.3 nM | 61 nM | 4.1 nM | –
11 | XLYENKPRRPYILKGCRFGTCTVQKLAHQIYQFTDKDVAPRSKISPQGY (Pyr(glu)- at N-terminus; miniPEG between LYENKPRRPYIL and K(PAL); K(PAL); -NH2) [NTSR1 and CLR/RAMP agonist MRL (SEQ ID NO: 223)] | – | – | – | CLR/RAMP1 EC50 (CLR/RAMP1 receptor [7]): 0.8 nM; CLR/RAMP1 Max Activity (CLR/RAMP1 receptor [7]): 102 % of positive controls; CLR/RAMP2 EC50 (CLR/RAMP2 receptor [4]): 1 nM; CLR/RAMP2 Max Activity (CLR/RAMP2 receptor [4]): 70 % of positive controls
12 | FCFWKTCTKVQKLAHQIYQFTDKDVAPRSKISPQGY ((D-Phe) at position 1 and (D-Trp) in (D-Phe)CF(D-Trp)KTCT; miniPEG before K(Pal); K(Pal); -NH2) [SSTR2 and CLR/RAMP MRL (SEQ ID NO: 218)] | – | – | – | CLR/RAMP1 IC50 (CLR/RAMP1 receptor [7]): 2 nM; CLR/RAMP1 Max Activity (antagonist) (CLR/RAMP1 receptor [7]): 102 % of positive controls; CLR/RAMP2 IC50 (CLR/RAMP2 receptor [4]): < 0.5 nM; CLR/RAMP2 Max Activity (antagonist) (CLR/RAMP2 receptor [4]): 87 % of positive controls
13 | MiniPEG-KVQKLAHQIYQFTDKDSAPVDPSSPHSY-NH2 (also: K(Pal), Lys not given here) [SEQ ID NO: 112] | 1.8 nM | 5.3 nM | 2.3 nM | –
14 | MiniPEG-KVQKLAHQIYSAPVDPSSPHSY-NH2 (also: K(Pal), Lys not given here) [SEQ ID NO: 114] | 4.8 nM | 146 nM | 8.4 nM | –
15 | Ac-NFVPTNVGPFAF-NH2 [SEQ ID NO: 144] | – | > 10000 nM | – | CLR/RAMP2 Max Activity (antagonist) (CLR/RAMP2 receptor [2]): 0 % of positive control
16 | Palmitoyl-TVQKLAHQIYQFTDKDKDNSAPVDPSSPHSY-NH2 [SEQ ID NO: 77] | 9.9 nM | 47 nM | – | –
17 | Palmitoyl-KGCRFGTCTVQKLAHQIYQFTDKDSAPVDPSSPHSY-NH2 (cysteine pairing not given here) [SEQ ID NO: 92] | – | – | – | CLR/RAMP3 EC50 (CLR/RAMP3 receptor [5]): 0.2 nM; CLR/RAMP1 EC50 (CLR/RAMP1 receptor [8]): 0.4 nM; CLR/RAMP2 EC50 (CLR/RAMP2 receptor [6]): 0.3 nM
18 | Palmitoyl-KVQKLNFVPTNVGSKAF-NH2 [SEQ ID NO: 142] | – | – | – | CLR/RAMP1 Max Activity (antagonist) (CLR/RAMP1 receptor [1]): 100 % of positive control; CLR/RAMP2 Max Activity (antagonist) (CLR/RAMP2 receptor [2]): 80 % of positive control
19 | Palmitoyl-KVQKLAHQIYQFTDKDSAPVDPSSPHSY-NH2 [SEQ ID NO: 121] | 3.2 nM | 4.9 nM | 1.8 nM | –
20 | Ace-VTHRLAGLLSRFTDKDKDNVAPRSKISPQGY-NH2 [SEQ ID NO: 115] | 1880 nM | 117 nM | 115 nM | –
21 | XRPRLSHKGPLPFKGCRFGTCTVQKLAHQIYQFTDKDVAPRSKISPQGY (not fully specified; (Glp) at N-terminus; (Nle) in RPRLSHKGP(Nle)PF; miniPEG before K(PAL); K(PAL); -NH2) [AGTRL1 and CLR/RAMP agonist MRL (SEQ ID NO: 228)] | – | – | – | CLR/RAMP1 EC50 (CLR/RAMP1 receptor [7]): 0.6 nM; CLR/RAMP1 Max Activity (CLR/RAMP1 receptor [7]): 130 % of positive controls; CLR/RAMP2 EC50 (CLR/RAMP2 receptor [4]): 2 nM; CLR/RAMP2 Max Activity (CLR/RAMP2 receptor [4]): 74 % of positive controls
22 | YGGFLRRIRPKLKKVQKLSAPVDPSSPHSY (Ace- at N-terminus; miniPEG between YGGFLRRIRPKLK and K(Pal); K(Pal); -NH2) [SEQ ID NO: 146] | < 0.5 nM | – | – | CLR/RAMP1 Max Activity (antagonist) (CLR/RAMP1 receptor [1]): 102 % of positive control
23 | Palmitoyl-KVQNLSAPVDPSSPHSY-NH2 [SEQ ID NO: 141] | – | – | – | CLR/RAMP1 Max Activity (antagonist) (CLR/RAMP1 receptor [1]): 43 % of positive control; CLR/RAMP2 Max Activity (antagonist) (CLR/RAMP2 receptor [2]): 14 % of positive control
24 | miniPEG-KGCRFGTCTVQKLAHQIYQFTDKDKDNSAPVDPSSPHSY-NH2 (cysteine pairing not given here; also: K(PAL) present, lysine not given here) [SEQ ID NO: 28] | – | – | – | CLR/RAMP3 EC50 (CLR/RAMP3 receptor [5]): 0.06 nM; CLR/RAMP1 EC50 (CLR/RAMP1 receptor [8]): 0.3 nM
25 | Palmitoyl-KVQNLSHRLWQLMGPAGSAPVDPSSPHSY-NH2 [SEQ ID NO: 120] | 5.8 nM | 85 nM | 9.2 nM | –
